We go through two molecules from paper PMC11784017 (2024).

The target of the assay is T1, SVCV-G protein, purified, biotinylated (spring viremia of carp virus (SVCV), UniProt Q91DS0 19-509, biotin (biotinylated)).
T1 chain: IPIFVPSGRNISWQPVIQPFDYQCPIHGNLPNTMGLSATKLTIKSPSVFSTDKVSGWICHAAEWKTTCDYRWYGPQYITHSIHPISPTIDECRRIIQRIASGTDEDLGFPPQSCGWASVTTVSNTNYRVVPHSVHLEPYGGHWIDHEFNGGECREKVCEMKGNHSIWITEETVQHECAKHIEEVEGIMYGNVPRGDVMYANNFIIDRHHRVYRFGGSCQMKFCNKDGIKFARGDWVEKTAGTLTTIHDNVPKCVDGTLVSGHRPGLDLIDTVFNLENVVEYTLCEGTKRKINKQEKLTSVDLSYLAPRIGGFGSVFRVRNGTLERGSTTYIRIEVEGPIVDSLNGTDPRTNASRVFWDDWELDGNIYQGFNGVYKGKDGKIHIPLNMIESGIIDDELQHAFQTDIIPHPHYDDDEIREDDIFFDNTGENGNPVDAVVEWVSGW
Put plainly: BLI. Background: Biolayer interferometry detects binding as a change in optical thickness at a sensor tip.

B1: scFv-1 (scFv)
chain 1: QSVEESGGRLVTPGTPLTLTCTASGFSLSTYYMTWVRQAPGKGLEWIGIIDPYGTTWSASWVKGRFTISRTSTTVDLKMTSLTAADTATYFCARIDSIYTIGHCDLWGQGTLVTVSL
chain 2: ELVMTQTPASVSAAVGGTVTIKCQASQSIGTALAWYQQKPGQPPKLLIYKTSTLASGVSSRFKGSGSGTEFTLTISDLECADAVTYYCQYAYYGGNDVGGAFGGGDRAGDP
The Kd is the equilibrium constant for the complex coming apart. The low end stands for higher affinity, the high end for lower affinity. The molecule B1 gave a dissociation constant Kd of 3.12 µM. In other words, the single-digit micromolar range.

B2: scFv-2 (scFv)
chain 1: QSVEESGGRLITPGTPLTLTCTASGFSLSSHYMIWVRRTPGKGLEWIGLIFISGSTNYANWAKGRFTVSRTSTTVDLKITSPTTEDTATYFCARGRGGTDYQSWLFGLWGQGTVVTVSS
chain 2: ELVMTQTPSPVSVAVGGTVTINCQSSPSVYSNYLSWYQQKPGQPPKQLIYGASSLASGVPSRFKGSGSGTQFTLTISGVECDDAATYYCVGWKGGPNGEFAFGGGDRAGDP
Molecule B2 gave a Kd of 3.71 µM.
